These are literature values, as cited in paper PMC2919054.

The target of the series is ILT7 (Homo sapiens) (UniProt P59901). As to the kind of experiment: SPR. A general note: SPR reads the build-up and loss of mass on a sensor chip optically.
Sequence of UniProt P59901 (P59901 24-499): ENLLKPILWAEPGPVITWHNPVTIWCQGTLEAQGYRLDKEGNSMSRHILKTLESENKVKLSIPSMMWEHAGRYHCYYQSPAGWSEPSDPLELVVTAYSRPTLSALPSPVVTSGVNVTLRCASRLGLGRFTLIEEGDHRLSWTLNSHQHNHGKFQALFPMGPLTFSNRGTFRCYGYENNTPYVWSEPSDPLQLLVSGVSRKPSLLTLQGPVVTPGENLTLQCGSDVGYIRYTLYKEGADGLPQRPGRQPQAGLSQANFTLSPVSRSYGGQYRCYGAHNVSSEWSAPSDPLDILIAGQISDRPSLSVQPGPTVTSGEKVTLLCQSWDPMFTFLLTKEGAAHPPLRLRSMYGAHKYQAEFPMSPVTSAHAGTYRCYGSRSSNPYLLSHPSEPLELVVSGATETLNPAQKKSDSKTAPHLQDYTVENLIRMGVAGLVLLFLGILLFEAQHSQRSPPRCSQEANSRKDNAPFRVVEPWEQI

Turning to BST2 (from UniProt Q10589), the Kd is 1000 nM.

In general, Kd refers to a measure of binding affinity in units of concentration.
